{
  "source": "paper PMC6099927",
  "target": "Plasmodium falciparum lactate dehydrogenase (PfLDH) (Plasmodium falciparum) (UniProt Q27743)",
  "sequence (Q27743 whole entry)": "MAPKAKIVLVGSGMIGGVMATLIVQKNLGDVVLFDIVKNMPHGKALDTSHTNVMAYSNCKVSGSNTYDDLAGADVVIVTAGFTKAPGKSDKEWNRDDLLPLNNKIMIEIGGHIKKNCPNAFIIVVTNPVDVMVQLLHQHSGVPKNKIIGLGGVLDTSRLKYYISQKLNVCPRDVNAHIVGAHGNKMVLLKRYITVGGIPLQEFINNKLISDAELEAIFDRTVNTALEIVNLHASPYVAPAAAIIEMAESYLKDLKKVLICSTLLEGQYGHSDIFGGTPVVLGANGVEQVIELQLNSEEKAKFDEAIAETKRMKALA",
  "test": "APTEC plate capture assay",
  "details": "2x PBS binding buffer (recombinant PfLDH), 1 h, streptavidin plate coated with DNA, PBST (0.1% Tween-20) washes, absorbance 570 nm; blood: 1:1 with PBS 0.5% …",
  "note": "pKd: −log10 of the molar value.",
  "data": [
    {"sequence": "GCAACAGAGCCCTATTCTGTCTCAGTCCACCGGGTTAGGAAACGCGAGTCAGT / CTGGGCGGTAGAACCATAGTGACCCAGCCGTCTACTTCCCTAACGCCTGCGTGAATAGGGCTCTGTTGC / CTGGGCGGTAGAACCATAGTGACCCAGCCGTCTACTTGATCTCAACTCAGTTACCCGGTGGACTGAGAC / CTGGGCGGTAGAACCATAGTGACCCAGCCGTCTACTTTCATCTGGGGCCTTTACTGACTCGCGTTTCCT / TAAGGCCCCAGATGATAAACCCAGGCCGGCCCT / TCGCTCGACAGAGATACTATTAGTACCAGGCCCGATAGGGCCGGCCTGGGTTT / TCGCAGGCGTTAGGGTTCGGGCCTGGTACTAAT / TACTGAGTTGAGATCTGTATCTCTGTCGAGCGA [prism with three aptamers]", "values": [
      {"measurement": "pKd", "value": 8.86}
    ]}
  ]
}
